Laboratory results: patent publication US20210238276A1 (INTEGRAL MOLECULAR, published 2021)
Where a chain is given by its changes, count along the chain named.

Assays:
Assay in all cases: flow cytometry, alanine-scan library in HEK-293T, with cytochalasin B
[1] = biological target: T1, hsGLUT4 F307A (human, UniProt P14672 1-509)
T1 sequence: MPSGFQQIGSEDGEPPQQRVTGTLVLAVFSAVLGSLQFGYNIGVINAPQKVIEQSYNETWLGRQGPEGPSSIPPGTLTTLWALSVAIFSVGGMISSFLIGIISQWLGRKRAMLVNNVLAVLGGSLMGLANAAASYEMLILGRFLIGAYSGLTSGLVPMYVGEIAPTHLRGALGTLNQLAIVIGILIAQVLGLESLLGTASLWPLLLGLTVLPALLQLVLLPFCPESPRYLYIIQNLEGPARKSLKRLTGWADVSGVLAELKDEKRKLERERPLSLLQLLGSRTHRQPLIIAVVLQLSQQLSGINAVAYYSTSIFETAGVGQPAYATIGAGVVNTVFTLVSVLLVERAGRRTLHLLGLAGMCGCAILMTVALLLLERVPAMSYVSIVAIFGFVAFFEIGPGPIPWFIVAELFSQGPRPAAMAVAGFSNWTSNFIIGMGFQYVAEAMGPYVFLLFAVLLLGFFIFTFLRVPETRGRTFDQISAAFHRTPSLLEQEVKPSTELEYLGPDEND
Summary of the method: (§1)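 HEK-293T cells expressing individual GLUT4 alanine mutants were stained 48 h post-transfection with anti-GLUT4 scFv MAbs (2 μg/ml), then biotinylated secondary and streptavidin-PerCP, and read by high-throughput flow cytometry. Where used, cytochalasin B (10 uM final) was given for 30 min before and during primary antibody staining.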

[2] = biological target: T2, hsGLUT4 L296A (human, UniProt P14672 1-509)
T2 sequence: T1 sequence with L296A, A307F
Summary of the method: as §1

[3] = biological target: T3, hsGLUT4 E315A (human, UniProt P14672 1-509)
T3 sequence: T1 sequence with A307F, E315A
Summary of the method: as §1

[4] = biological target: T4, hsGLUT4 S310A (human, UniProt P14672 1-509)
T4 sequence: T1 sequence with A307F, S310A
Summary of the method: as §1

- % of binding to wild type GLUT4 [1]: 22%
- % of binding to wild type GLUT4 [2]: 69%
- % of binding to wild type GLUT4 [3]: 76%
- % of binding to wild type GLUT4 [4]: 20%
B1: AB102 (Fc fusion)
scFv: ALTQPSSVSANLGGTVKITCSGGGSYGYGWYQQKSPGSAPVTVIYSNDQRPSDIPSRFSGSKSGSTATLTITGVRAEDEAIYYCGSTDSDYVGIFGAGTTLTVLGQSSRSSGGGGSSGGGGSAVTLDESGGGLQTPGGTLSLVCKASGFDFSSYATIWVRQAPGKGLEWVAGISGTGTGSSTGYAPAVKGRATISRDNGQSTVRLQLNNLRAEDTGSYFCAKSTGYGDSWIYPDSIDAWGHGTEVIVSS
notes: also called MAb AB102; not shown: Fc fragment of human IgG1, cloned in frame with the scFv
